Test results from publication doi:10.1101/2023.02.09.527835 (bioRxiv, 2023).

Molecular target: human complement C3a (human, UniProt P01024 672-748)
Assay: cryo-EM structure

Chain of human complement C3a (P01024 672-748): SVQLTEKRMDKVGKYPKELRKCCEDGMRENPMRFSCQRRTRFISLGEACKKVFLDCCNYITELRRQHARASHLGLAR

B1: human complement C3a receptor (C3aR), full-length, FLAG-M4(2-23)-C3aR construct for cryo-EM (receptor, UniProt P08173 2-23, looked up)
chain: ANFTPVNGSSGNQSVRLVTSSSMASFSAETNSTDLLSQPWNEPPVILSMVILSLTFLLGLPGNGLVLWVAGLKMQRTVNTIWFLHLTLADLLCCLSLPFSLAHLALQGQWPYGRFLCKLIPSIIVLNMFASVFLLTAISLDRCLVVFKPIWCQNHRNVGMACSICGCIWVVAFVMCIPVFVYREIFTTDNHNRCGYKFGLSSSLDYPDFYGDPLENRSLENIVQPPGEMNDRLDPSSFQTNDHPWTVPTVFQPQTFQRPSADSLPRGSARLTSQNLYSNVFKPADVVSPKIPSGFPIEDHETSPLDNSDAFLSTHLKLFPSASSNSFYESELPQGFQDYYNLGQFTDDDQVPTPLVAITITRLVVGFLLPSVIMIACYSFIVFRMQRGRFAKSQSKTFRVAVVVVAVFLVCWTPYHIFGVLSLLTDPETPLGKTLMSWDHVCIALASANSCFNPFLYALLGKDFRKKARQSIQGILEAAFSEELTRSTHCPSNNVISERNSTTV
modifications: alkylated with iodoacetamide
Question: Does B1 bind?
Answer: binds
